Assay [1] addresses T1, human PD-L1 (human, UniProt Q9NZQ7 19-290).
T1 construct: whole, on cells; Target presented on human breast cancer cell lines; The quantitative assays (IRF, IC50, Kd) used MDA-MB-231 cells; also called CD274; Programmed Cell Death 1 Ligand 1
Kind of assay: saturation binding of ^111In-PD-L1.3.1 on cells, 4 h on ice, called Scatchard analysis in the filing; the cell line is not printed on the sheet (MDA-MB-231 used in the subsequent binding assays). The method, then: (§1) Cells were cultured to confluency in six-well plates and were incubated for 4 h on ice with increasing concentrations ¹¹¹In-PD-L1.3.1 (3-3000 pM) in 1 ml RPMI1640 containing 0.5% BSA. Non-specific binding was determined by co-incubation with 100 nM PD-L1.3.1. After incubation, cells were washed with PBS and the cell-associated activity was measured in a shielded well-type gamma counter. The specific binding (total binding—nonspecific binding) was plotted against the bound/free ratio. Data were analyzed by linear regression to determine PD-L1 receptor density per cell and to determine the Kd of ¹¹¹In-PD-L1.3.1.

The target in assay [2] is T1, human PD-L1. As to the kind of experiment: Scatchard analysis on cells, 4 h on ice, 3-3000 pM ^111In-PD-L1.3.1, non-specific binding determined with 100 nM unlabeled antibody; 111In-labeled antibody, Scatchard analysis; MDA-MB-231 cells by paragraph 130. The method, then:
as §1

Assay [3] deals with T1, human PD-L1. Kind of assay: competition on MDA-MB-231 cells, 4 h on ice: unlabeled PD-L1.3.1 (1-1000 pM) against 20 pM ^111In-PD-L1.3.1, gamma counter; unlabeled antibody, competition on MDA-MB-231 cells. The method, then:
MDA-MB-231 cells were cultured to confluency in six-well plates. The 50% inhibitory concentration (IC₅ₒ) of PD-L1.3.1 blocking of ¹¹¹In-PD-L1.3.1 binding was determined by incubating the cells for 4 h on ice in 1 ml RPMI1640 0.5% BSA, containing 20 pM ¹¹¹In-PD-L1.3.1 (1 kBq) and increasing concentrations of unlabeled PD-L1.3.1 (1-1000 pM). After incubation, cells were washed with PBS and the cell-associated activity was measured in a gamma counter. The IC₅₀ was defined as the antibody concentration that was required to inhibit binding of the radio labeled antibody by 50%. IC₅₀ values were calculated using GraphPad Prism.

T1 sequence (Q9NZQ7 19-290): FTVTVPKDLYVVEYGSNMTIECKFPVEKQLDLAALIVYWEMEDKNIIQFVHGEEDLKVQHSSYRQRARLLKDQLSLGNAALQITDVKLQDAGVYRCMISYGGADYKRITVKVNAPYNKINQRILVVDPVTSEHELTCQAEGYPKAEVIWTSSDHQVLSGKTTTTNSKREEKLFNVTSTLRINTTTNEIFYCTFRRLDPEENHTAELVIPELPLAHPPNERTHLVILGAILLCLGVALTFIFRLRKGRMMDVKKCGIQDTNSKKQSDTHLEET

B1: ^111In-DTPA-PD-L1.3.1 (antibody, V domains shown)
VH: EVQLQQSGTELVKPGASVKLSCTTSGFNIQDTYMHWVKQRPEQGLEWIGWIDPANGNTKYDPKFQGKATIIADTSSNTAYLQLRGLTSEDTAVYYCARSGVSTAHFDYWGQGTTLTVSS
VL: QIVLSQSPAILSASPGEKVTMTCRASSSVSFMHWYQQKPGSSPKPWIYATSNLASGVPTRFSGSGSGTSYSLTLSRVEAEDAATYYCQQWSSYPRTFGGGTKLEIK
modifications: ITC-DTPA conjugate chelating ^111In; conjugated residues and chain not stated
In general, Kd refers to the concentration at which binding is half-saturated. Read a low Kd as tighter binding. On to B1, for which the dissociation constant Kd in assay [1] came to 1000 pM; in assay [2], 970 pM.

B2: PD-L1.3.1 antibody (unlabeled) (antibody, V domains shown)
VH: EVQLQQSGTELVKPGASVKLSCTTSGFNIQDTYMHWVKQRPEQGLEWIGWIDPANGNTKYDPKFQGKATIIADTSSNTAYLQLRGLTSEDTAVYYCARSGVSTAHFDYWGQGTTLTVSS
VL: QIVLSQSPAILSASPGEKVTMTCRASSSVSFMHWYQQKPGSSPKPWIYATSNLASGVPTRFSGSGSGTSYSLTLSRVEAEDAATYYCQQWSSYPRTFGGGTKLEIK
notes: also called unlabeled PD-L1.3.1
What is called IC50 is the point on the concentration scale where inhibition reaches its midpoint. Read a high IC50 as weaker potency in that assay. Turning to B2, the IC50 in assay [3] turned out to be 150 pM.

Values taken from patent publication US20180071413A1 (INSERM INSTITUT NATIONAL DE LA SANTE ET DE LA RECHERCHE …, published 2018).
